According to patent US9061070B2, “Treating stroke and other diseases without inhibiting N-type calcium channels” (NoNO, Inc., priority 2007, dated 2015):
Read-outs that look alike come from different tables or passages of the source. Where no end group is shown, it is not given here. [ ]: non-standard residue; d: D form. Tle = CC(C)(C)[C@H](N)C(=O)O; Nva = CCC[C@H](N)C(=O)O

Assays:
[1] = target: N-type calcium channels (Mus musculus, UniProt O55017); assay: Whole-cell patch clamp recordings of calcium currents in dorsal root ganglion neurons; assay type: cell-based, Swiss mice
N-type calcium channels, sequence (O55017 whole entry): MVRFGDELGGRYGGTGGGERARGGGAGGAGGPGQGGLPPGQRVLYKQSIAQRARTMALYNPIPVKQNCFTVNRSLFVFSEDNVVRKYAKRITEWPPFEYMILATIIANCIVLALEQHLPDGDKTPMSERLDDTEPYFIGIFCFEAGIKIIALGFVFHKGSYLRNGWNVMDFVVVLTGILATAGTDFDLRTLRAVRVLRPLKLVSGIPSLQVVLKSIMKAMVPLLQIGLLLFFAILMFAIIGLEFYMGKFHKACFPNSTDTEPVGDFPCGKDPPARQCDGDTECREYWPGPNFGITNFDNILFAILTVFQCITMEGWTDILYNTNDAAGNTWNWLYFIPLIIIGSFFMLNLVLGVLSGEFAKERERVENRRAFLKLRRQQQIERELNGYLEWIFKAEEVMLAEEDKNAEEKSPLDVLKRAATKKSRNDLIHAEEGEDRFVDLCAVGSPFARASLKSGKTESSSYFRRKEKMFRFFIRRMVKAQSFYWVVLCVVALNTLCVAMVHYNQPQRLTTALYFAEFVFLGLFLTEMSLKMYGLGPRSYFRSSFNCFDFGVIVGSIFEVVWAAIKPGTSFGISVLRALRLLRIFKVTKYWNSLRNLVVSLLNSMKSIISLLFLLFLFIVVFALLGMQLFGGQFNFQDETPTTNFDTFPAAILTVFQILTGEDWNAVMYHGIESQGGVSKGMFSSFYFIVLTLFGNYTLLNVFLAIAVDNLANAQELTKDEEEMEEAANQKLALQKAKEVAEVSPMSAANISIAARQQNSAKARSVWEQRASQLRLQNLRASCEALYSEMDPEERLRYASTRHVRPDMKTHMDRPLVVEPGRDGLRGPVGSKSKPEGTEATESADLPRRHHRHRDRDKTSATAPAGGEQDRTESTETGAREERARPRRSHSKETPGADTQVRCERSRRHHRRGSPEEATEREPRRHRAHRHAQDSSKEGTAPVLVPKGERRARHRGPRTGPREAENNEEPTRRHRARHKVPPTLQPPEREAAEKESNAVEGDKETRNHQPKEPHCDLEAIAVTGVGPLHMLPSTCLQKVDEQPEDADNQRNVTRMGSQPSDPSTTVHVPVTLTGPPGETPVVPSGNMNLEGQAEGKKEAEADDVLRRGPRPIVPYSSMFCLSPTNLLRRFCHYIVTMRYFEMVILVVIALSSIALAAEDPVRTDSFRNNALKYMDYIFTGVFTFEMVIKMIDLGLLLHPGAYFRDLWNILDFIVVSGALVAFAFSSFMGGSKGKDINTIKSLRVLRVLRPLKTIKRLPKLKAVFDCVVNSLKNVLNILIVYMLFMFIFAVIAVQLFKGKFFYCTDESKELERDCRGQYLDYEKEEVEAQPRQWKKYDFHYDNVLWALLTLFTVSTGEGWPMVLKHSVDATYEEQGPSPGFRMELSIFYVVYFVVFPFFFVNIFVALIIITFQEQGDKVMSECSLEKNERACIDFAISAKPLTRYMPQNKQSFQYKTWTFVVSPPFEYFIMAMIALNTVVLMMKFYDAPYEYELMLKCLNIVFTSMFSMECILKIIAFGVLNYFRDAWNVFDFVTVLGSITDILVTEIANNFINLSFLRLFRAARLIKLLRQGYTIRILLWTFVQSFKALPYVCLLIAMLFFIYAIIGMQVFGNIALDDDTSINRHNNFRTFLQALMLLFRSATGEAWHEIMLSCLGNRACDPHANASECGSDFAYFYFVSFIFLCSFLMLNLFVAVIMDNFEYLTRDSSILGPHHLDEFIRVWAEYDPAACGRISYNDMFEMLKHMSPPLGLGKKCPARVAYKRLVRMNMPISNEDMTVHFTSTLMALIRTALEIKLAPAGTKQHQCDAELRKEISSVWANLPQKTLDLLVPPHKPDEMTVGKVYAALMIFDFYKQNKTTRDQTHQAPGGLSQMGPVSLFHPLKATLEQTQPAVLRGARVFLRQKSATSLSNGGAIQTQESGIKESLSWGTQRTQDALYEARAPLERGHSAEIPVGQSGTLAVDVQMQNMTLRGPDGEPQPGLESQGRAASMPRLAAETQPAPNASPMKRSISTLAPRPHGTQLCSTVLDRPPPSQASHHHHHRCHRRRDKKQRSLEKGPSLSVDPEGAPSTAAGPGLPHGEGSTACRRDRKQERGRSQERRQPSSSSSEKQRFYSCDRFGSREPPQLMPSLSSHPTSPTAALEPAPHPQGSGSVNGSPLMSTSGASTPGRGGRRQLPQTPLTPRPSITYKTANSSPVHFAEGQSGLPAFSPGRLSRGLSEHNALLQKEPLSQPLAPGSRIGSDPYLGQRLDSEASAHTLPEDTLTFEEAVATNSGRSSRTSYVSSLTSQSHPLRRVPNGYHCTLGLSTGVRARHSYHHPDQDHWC
N-type calcium channels, sequence (O08532 25-956 partner limits assumed): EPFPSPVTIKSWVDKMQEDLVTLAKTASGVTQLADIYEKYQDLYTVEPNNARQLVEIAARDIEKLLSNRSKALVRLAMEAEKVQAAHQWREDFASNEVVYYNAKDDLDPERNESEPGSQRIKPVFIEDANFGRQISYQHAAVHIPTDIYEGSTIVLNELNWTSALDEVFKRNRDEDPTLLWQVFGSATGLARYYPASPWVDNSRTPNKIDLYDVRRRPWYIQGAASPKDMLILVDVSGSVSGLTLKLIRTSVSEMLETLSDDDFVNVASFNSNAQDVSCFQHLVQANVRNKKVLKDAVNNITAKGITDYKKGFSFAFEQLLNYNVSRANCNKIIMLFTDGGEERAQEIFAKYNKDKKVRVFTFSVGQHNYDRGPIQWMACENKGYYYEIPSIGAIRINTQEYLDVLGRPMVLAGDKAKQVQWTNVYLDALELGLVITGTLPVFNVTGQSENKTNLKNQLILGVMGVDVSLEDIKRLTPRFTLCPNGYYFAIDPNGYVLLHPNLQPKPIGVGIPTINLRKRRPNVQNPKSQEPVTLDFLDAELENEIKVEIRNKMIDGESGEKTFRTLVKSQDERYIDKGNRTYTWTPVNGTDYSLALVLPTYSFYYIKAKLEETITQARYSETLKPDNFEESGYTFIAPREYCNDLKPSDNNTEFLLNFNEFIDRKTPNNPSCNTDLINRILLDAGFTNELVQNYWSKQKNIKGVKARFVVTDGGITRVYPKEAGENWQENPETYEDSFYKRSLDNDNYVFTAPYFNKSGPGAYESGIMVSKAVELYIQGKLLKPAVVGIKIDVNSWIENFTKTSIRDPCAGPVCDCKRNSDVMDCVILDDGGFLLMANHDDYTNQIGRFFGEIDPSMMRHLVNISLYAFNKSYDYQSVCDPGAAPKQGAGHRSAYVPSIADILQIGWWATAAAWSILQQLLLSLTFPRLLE
N-type calcium channels, sequence (O08532 957-1103 partner limits assumed): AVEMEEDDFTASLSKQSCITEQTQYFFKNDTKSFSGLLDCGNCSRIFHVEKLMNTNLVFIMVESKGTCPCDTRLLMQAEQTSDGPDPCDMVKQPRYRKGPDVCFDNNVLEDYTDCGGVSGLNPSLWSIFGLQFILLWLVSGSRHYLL
N-type calcium channels, sequence (P54285 whole entry partner): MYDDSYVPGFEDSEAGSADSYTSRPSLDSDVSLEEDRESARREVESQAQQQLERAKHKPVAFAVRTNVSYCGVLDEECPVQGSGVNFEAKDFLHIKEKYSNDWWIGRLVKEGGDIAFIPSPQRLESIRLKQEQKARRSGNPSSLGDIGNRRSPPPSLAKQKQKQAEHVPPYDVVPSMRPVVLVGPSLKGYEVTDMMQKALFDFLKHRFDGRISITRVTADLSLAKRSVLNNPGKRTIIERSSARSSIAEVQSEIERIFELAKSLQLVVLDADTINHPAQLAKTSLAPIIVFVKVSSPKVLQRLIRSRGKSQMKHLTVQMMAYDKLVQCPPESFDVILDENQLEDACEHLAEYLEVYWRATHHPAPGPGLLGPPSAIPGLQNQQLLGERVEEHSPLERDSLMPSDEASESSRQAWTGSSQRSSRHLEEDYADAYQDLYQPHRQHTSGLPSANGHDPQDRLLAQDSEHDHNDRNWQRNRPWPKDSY

[2] = system: pial 3 vessel occlusion (P3VO) model of stroke; assay: Pial vessel occlusion (P3VO) model of permanent ischemia; assay type: in vivo, Sprague Dawley rats; conditions: for reduction of infarct size: single dose 3 nmol/g one hour after initiating ischemia, FIG. 3
[3] = cited from earlier work
[4] = target: N-type Ca channels (Homo sapiens, UniProt Q00975); assay type: binding; conditions: 10 μM peptide
[5] = system: MCAO model of stroke; conditions: previously tested; cited from earlier work
[6] = peptide at 100 μM, mean+/-s.e.m., DRG neurons
[7] = 3 nMol/g i.v. one hour after occlusion, 24 h, FIG. 8

YGRKKRRQRRRALSSIESDV (Synthetic peptide - 1994 Tat-NR2B9c K to A) [Peptide 1994]
inhibition of N-type calcium channel activity (in words) ([1]; FIG. 2, peptide at 100 μM): significant improvement in channel activity over TAT alone although still displayed some reduction | inhibition of N-type calcium channel activity (in words) ([1]; FIG. 2, peptide at 100 μM, listed as 1994 Tat-NR2B9c K to A): no significant inhibition | Ca2+ current shown as a percentage (normalized to current before peptide) [1, 6]: 77+/−1.8%

FGRKKRRQRRRKLSSIESDV (also: fluorescent label, place not given here (F-Tat-NR2B9c)) [Peptide 1993]
inhibition of N-type calcium channel activity (in words) ([1]; FIG. 2, peptide at 100 μM): no significant inhibition | Ca2+ current shown as a percentage (normalized to current before peptide) [1, 6]: 91+/−1.6% | reduction of infarct size [2]: equally effective in reducing infarct size

YGRKKRRQRRRKLSSIESDX [1976] (YGRKKRRQRRRKLSSIESD[Nva]) [Peptide 1976]
Ca2+ current shown as a percentage (normalized to current before peptide) [1, 6]: 66+/−3.4%

N[C@@H](Cc1ccc(O)c(O)c1)C(=O)O [Levodopa]
halflife [3]: halflife = 1.5 hrs

YGRKKRRQRRRKLSSIEXDV (YGRKKRRQRRRKLSSIE[L‑2‑amino‑3‑ureidopropionic acid]DV) [Peptide 1978]
infarct size (percent of hemisphere) ([2]; rat, in vivo, iv): some reduction in infarct size

YGRKKRRQRRRKLSSIESDX (YGRKKRRQRRRKLSSIESD[Nva]) [Peptide 1976]
infarct size (percent of hemisphere) [2, 7]: significantly decreased infarct sizes

YGRKKRRQRRR [Peptide 1990, reference compound]
Ca2+ current shown as a percentage (normalized to current before peptide) [1]: 57+/−1.6%

FGRKKRRQRRRALSSIESDV (also: fluorescent label, place not given here (F-Tat-NR2B9c)) [Peptide 1995]
Ca2+ current shown as a percentage (normalized to current before peptide) [1, 6]: 97+/−0.2%

CC[C@H](C)C(=O)O[C@H]1C[C@H](O)C=C2C=C[C@H](C)[C@H](CC[C@@H](O)C[C@@H](O)CC(=O)O)[C@H]21 [Pravachol ® (pravastatin), pravastatin]
bioavailability [3]: efficacy, low

YGRKKRRQRRRKLSSIESDV [Tat-NR2B9c, reference compound]
inhibition of radiolabeled ω-Conotoxin GVIA binding to N-type Ca channels [4]: 100% | frequency (use) dependence of block of Ca2+ currents ([1]; 100 μM, 0.07, 10, 20, 50 Hz, FIG. 6): not frequency dependent | Ca2+ current shown as a percentage (normalized to current before peptide) [1, 6]: 68+/−1.7% | voltage dependence of inhibition of Ca2+ current ([1]; steps from −40 to +50 mV, FIG. 7): independent of voltage | infarct size (percent of hemisphere) [2, 7]: significantly decreased infarct sizes | reduction of infarct size [2]: equally effective in reducing infarct size | neuroprotection, infarct size [5]: neuroprotective as seen by a reduced infarct size

YGRKKRRQRRRKLSSIESDX [1977] (YGRKKRRQRRRKLSSIESD[Tle]) [Peptide 1977]
Ca2+ current shown as a percentage (normalized to current before peptide) [1, 6]: 65+/−5.1%

YGRKKRRQRRRKLSSIEADA (Synthetic peptide - 1992 Tat-NR2B9c-AA) [Peptide 1992]
inhibition of N-type calcium channel activity (in words) ([1]; FIG. 2, peptide at 100 μM): significant improvement in channel activity over TAT alone although still displayed some reduction | Ca2+ current shown as a percentage (normalized to current before peptide) [1, 6]: 74+/−2.4%

1987: D-isomer of Tat-NR2B9c ([dY]G[dR][dK][dK][dR][dR][dQ][dR][dR][dR][dA][dL][dS][dS][dI][dE][dS][dD][dV]) [Peptide 1987]
Ca2+ current shown as a percentage (normalized to current before peptide) [1]: 82+/−2.2% | inhibition of N-type calcium channel activity (in words) [1]: significant improvement in channel activity over TAT alone although still displayed some reduction

KLSSIESDV (Synthetic active peptide - 1991 2B9c) [Peptide 1991]
inhibition of N-type calcium channel activity (in words) ([1]; FIG. 2, peptide at 100 μM): no significant inhibition | Ca2+ current shown as a percentage (normalized to current before peptide) [1, 6]: 94+/−1.7%

YGRKKRRQRRRKLSSIETDX (YGRKKRRQRRRKLSSIETD[Nva]) [Peptide 1975]
infarct size (percent of hemisphere) [2, 7]: some reduction in infarct size

NCCCC[C@H](N[C@@H](CCc1ccccc1)C(=O)O)C(=O)N1CCC[C@H]1C(=O)O [Prinivil ® (lininopril), lininopril]
halflife [3]: crossing, 12 hr
